125 sequences from the supplement of paper PMC9112550, “Optimization of the antimicrobial peptide Bac7 by deep mutational scanning” (BMC Biology, 2022) can be followed below.
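Also: peptides expressed intracellularly from a pBAD plasmid library in pooled LB shake-flask culture, induced with 0.3% L-arabinose, DNA abundance read by NGS, three biological replicates, DESeq2 with apeglm shrinkage.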

This series deals with Escherichia coli TOP10. The series can be described thus: shrunken log2 fold change of peptide-encoding DNA abundance (4.5 h post-induction vs induction); higher = less antimicrobial activity (less host growth inhibition). Particulars: time post-induction: 4.5 h; library: site-saturation at positions 5, 18, 19, 20.
For RRIRPRPPRLPRPRPRPPPFPRP, the “shrunken log2 fold change” value amounted to 0.277.
The value for RRIRGRPPRLPRPRPRPGCWPRP was 1.39.
The value for RRIRGRPPRLPRPRPRPAKEPRP was 0.414; that for RRIRTRPPRLPRPRPRPNFCPRP was -0.126.
Under RRIRSRPPRLPRPRPRPMEEPRP stands -0.01; under RRIRNRPPRLPRPRPRPTIIPRP, -0.905; under RRIRIRPPRLPRPRPRPWAMPRP, -0.493.
As for RRIRRRPPRLPRPRPRPGRLPRP, the “shrunken log2 fold change” value came to 0.728.
Under RRIRWRPPRLPRPRPRPSADPRP stands 0.115; under RRIRWRPPRLPRPRPRPFAWPRP, 0.179; under RRIRWRPPRLPRPRPRPQVQPRP, 0.115.
Turning to RRIRVRPPRLPRPRPRPEFCPRP, the “shrunken log2 fold change” value was 0.267.
Under RRIRHRPPRLPRPRPRPDSIPRP stands -0.0212; under RRIRPRPPRLPRPRPRPLMTPRP, -0.0836; under RRIRSRPPRLPRPRPRPGTTPRP, 0.132.
Under RRIRDRPPRLPRPRPRPDQYPRP stands 0.00642; under RRIRGRPPRLPRPRPRPWRGPRP, 0.228; under RRIRVRPPRLPRPRPRPPEHPRP, -0.219.
The value for RRIRPRPPRLPRPRPRPLHQPRP was -0.0461.
Consider RRIRPRPPRLPRPRPRPVHHPRP, for which the “shrunken log2 fold change” value is -0.218.
Under RRIRMRPPRLPRPRPRPQHYPRP stands -0.116; under RRIRYRPPRLPRPRPRPQYNPRP, -1.49.
Under RRIRRRPPRLPRPRPRPYWNPRP stands -0.368; under RRIRMRPPRLPRPRPRPTNWPRP, 0.474; under RRIRERPPRLPRPRPRPSEGPRP, 0.00843.
Under RRIRDRPPRLPRPRPRPEAVPRP stands 0.0262.
As for RRIRMRPPRLPRPRPRPLVKPRP, the “shrunken log2 fold change” value was -0.174.
The value for RRIRARPPRLPRPRPRPRGAPRP was 0.961; that for RRIRDRPPRLPRPRPRPEQIPRP was -0.0105; that for RRIRDRPPRLPRPRPRPQEFPRP was -0.0529.
Under RRIRGRPPRLPRPRPRPCAQPRP stands 1.07.
The value for RRIRYRPPRLPRPRPRPQKYPRP was -0.969; that for RRIRPRPPRLPRPRPRPIIAPRP was -0.681.
For the sequence RRIRKRPPRLPRPRPRPVMKPRP, the “shrunken log2 fold change” value worked out at 0.535.
Take RRIRNRPPRLPRPRPRPITAPRP: the “shrunken log2 fold change” value is -0.132.
Under RRIRLRPPRLPRPRPRPVHCPRP stands -0.11.
RRIRVRPPRLPRPRPRPQERPRP: the “shrunken log2 fold change” value is -0.119.
As to RRIRGRPPRLPRPRPRPTRHPRP, the “shrunken log2 fold change” value came to 0.764.
Under RRIRERPPRLPRPRPRPWLPPRP stands -0.0302; under RRIRWRPPRLPRPRPRPGTPPRP, 0.356; under RRIRVRPPRLPRPRPRPRPHPRP, 0.351.
Under RRIRGRPPRLPRPRPRPNWSPRP stands 0.131.
The value for RRIRCRPPRLPRPRPRPYAMPRP was -0.436; that for RRIRTRPPRLPRPRPRPINFPRP was -0.0833.
On to RRIRNRPPRLPRPRPRPTASPRP, for which the “shrunken log2 fold change” value stood at 1.61.
Under RRIRCRPPRLPRPRPRPQITPRP stands -0.639.
Turning to RRIRFRPPRLPRPRPRPNVMPRP, the “shrunken log2 fold change” value is -0.166.
The value for RRIRHRPPRLPRPRPRPHAKPRP was -0.00884.
Under RRIRNRPPRLPRPRPRPCAPPRP stands -0.436; under RRIRDRPPRLPRPRPRPNPKPRP, 0.165.
The value for RRIRERPPRLPRPRPRPTEKPRP was 0.154.
Take RRIRERPPRLPRPRPRPHVAPRP: the “shrunken log2 fold change” value was 0.0131.
RRIRPRPPRLPRPRPRPNNLPRP: the “shrunken log2 fold change” value is -0.181.
The value for RRIRGRPPRLPRPRPRPYYAPRP was -0.242; that for RRIRYRPPRLPRPRPRPWVHPRP was -0.701; that for RRIRTRPPRLPRPRPRPYASPRP was -0.255.
Under RRIRPRPPRLPRPRPRPGGPPRP stands 0.41.
Under RRIRQRPPRLPRPRPRPYGMPRP stands -0.549.
Turning to RRIRTRPPRLPRPRPRPHYVPRP, the “shrunken log2 fold change” value was -0.0402.
Under RRIRRRPPRLPRPRPRPHQNPRP stands 0.769; under RRIRERPPRLPRPRPRPMGGPRP, 0.0346; under RRIRLRPPRLPRPRPRPITVPRP, -0.216.
The value for RRIRRRPPRLPRPRPRPEGPPRP was 0.568; that for RRIRTRPPRLPRPRPRPTDEPRP was 0.491.
The value for RRIRIRPPRLPRPRPRPPESPRP was 0.185; that for RRIRNRPPRLPRPRPRPHKGPRP was -0.014; that for RRIRKRPPRLPRPRPRPNKNPRP was 0.125.
With RRIRWRPPRLPRPRPRPWPKPRP, the “shrunken log2 fold change” value came to 0.322.
The value for RRIRCRPPRLPRPRPRPDTNPRP was -0.285.
The value for RRIRYRPPRLPRPRPRPDPPPRP was 0.0918; that for RRIRWRPPRLPRPRPRPRETPRP was 0.936; that for RRIRQRPPRLPRPRPRPKNSPRP was -0.536.
The value for RRIRIRPPRLPRPRPRPSGHPRP was -0.397; that for RRIRTRPPRLPRPRPRPVMIPRP was -0.126.
On to RRIRWRPPRLPRPRPRPLFRPRP, for which the “shrunken log2 fold change” value is -0.0807.
The value for RRIRPRPPRLPRPRPRPEWQPRP was 0.137.
The value for RRIRARPPRLPRPRPRPWHVPRP was -0.0219; that for RRIRYRPPRLPRPRPRPSNRPRP was -0.134.
Under RRIRERPPRLPRPRPRPVMTPRP stands -0.221.
For RRIRMRPPRLPRPRPRPCMCPRP, the “shrunken log2 fold change” value is -0.317.
The value for RRIRHRPPRLPRPRPRPVPKPRP was 0.0819; that for RRIRSRPPRLPRPRPRPRFEPRP was 0.402.
The value for RRIRDRPPRLPRPRPRPKKPPRP was -0.0462; that for RRIRWRPPRLPRPRPRPSTVPRP was -0.362; that for RRIRGRPPRLPRPRPRPYFKPRP was -0.366.
The value for RRIRERPPRLPRPRPRPWTKPRP was 0.0475; that for RRIRYRPPRLPRPRPRPSIYPRP was -1.09.
Turning to RRIRWRPPRLPRPRPRPDVKPRP, the “shrunken log2 fold change” value was -0.26.
Under RRIRIRPPRLPRPRPRPAAQPRP stands 0.14; under RRIRVRPPRLPRPRPRPNCYPRP, -0.411; under RRIRRRPPRLPRPRPRPPGLPRP, 0.658.
Under RRIRGRPPRLPRPRPRPAPDPRP stands 1.07; under RRIRRRPPRLPRPRPRPCRAPRP, 0.182; under RRIRARPPRLPRPRPRPRCVPRP, 0.347.
Under RRIRCRPPRLPRPRPRPCGFPRP stands -0.29.
With RRIRWRPPRLPRPRPRPTVMPRP, the “shrunken log2 fold change” value was -0.374.
The value for RRIRSRPPRLPRPRPRPYHRPRP was -0.507.
The value for RRIRKRPPRLPRPRPRPMSTPRP was 0.41; that for RRIRSRPPRLPRPRPRPPRCPRP was 0.218.
Under RRIRWRPPRLPRPRPRPPFDPRP stands 0.445; under RRIRERPPRLPRPRPRPFYAPRP, -0.526; under RRIRSRPPRLPRPRPRPIDWPRP, 0.217.
For RRIRHRPPRLPRPRPRPGCYPRP, the “shrunken log2 fold change” value was 0.0554.
The value for RRIRERPPRLPRPRPRPDSWPRP was -0.563; that for RRIRQRPPRLPRPRPRPIVSPRP was -0.0135; that for RRIRCRPPRLPRPRPRPHKRPRP was 0.0953.
The value for RRIRLRPPRLPRPRPRPDNSPRP was -0.0436; that for RRIRARPPRLPRPRPRPLPVPRP was 0.174; that for RRIRARPPRLPRPRPRPPVMPRP was 0.395.
The value for RRIRSRPPRLPRPRPRPEAQPRP was 0.438.
As to RRIRSRPPRLPRPRPRPCFPPRP, the “shrunken log2 fold change” value is -0.747.
The value for RRIRERPPRLPRPRPRPDKIPRP was -0.0617; that for RRIRKRPPRLPRPRPRPRSSPRP was 0.263.
Under RRIRVRPPRLPRPRPRPDYCPRP stands -0.207; under RRIRRRPPRLPRPRPRPAWMPRP, 0.24.
Under RRIRCRPPRLPRPRPRPDCYPRP stands -0.0924.
For the sequence RRIRARPPRLPRPRPRPMSWPRP, the “shrunken log2 fold change” value amounted to 0.399.
The value for RRIRRRPPRLPRPRPRPFTIPRP was 0.0518.
Under RRIRYRPPRLPRPRPRPAPGPRP stands 0.391; under RRIRTRPPRLPRPRPRPHRQPRP, -0.256; under RRIRWRPPRLPRPRPRPHHGPRP, -0.234.
The value for RRIRPRPPRLPRPRPRPHKIPRP was -0.193.
As to RRIRLRPPRLPRPRPRPNFTPRP, the “shrunken log2 fold change” value is -0.501.
Consider RRIRFRPPRLPRPRPRPHMFPRP, for which the “shrunken log2 fold change” value was -0.21.
For the sequence RRIRMRPPRLPRPRPRPTFLPRP, the “shrunken log2 fold change” value is -0.319.
